Assays:
[1] = 10-11 d drug culture, PIPLC, anti-CD59 flow cytometry; settings: glycan changed form; control: untreated HEK293FF6 cells
[2] = PIPLC treatment, anti-CD59 flow cytometry; settings: glycan changed form

B1: CD59: DMJ (protein)
parent chain: MGIQGGSVLFGLLLVLAVFCHSGHSLQCYNCPNPTADCKTAVNCSSDFDACLITKAGLQVYNKCWKFEHCNFNDVTTRLRENELTYYCCKKDLCNFNEQLENGGTSLSEKTVLLLVTPFLAAAWSLHP
With B1 as the protein, how does the “other: PIPLC resistance of surface CD59 (GPI-inositol acylation)” value (shortened to “other: PIPLC resistance of surface CD59”) [1] read?
The value was “no change”.

B2: CD59: DNJ (protein)
parent chain: MGIQGGSVLFGLLLVLAVFCHSGHSLQCYNCPNPTADCKTAVNCSSDFDACLITKAGLQVYNKCWKFEHCNFNDVTTRLRENELTYYCCKKDLCNFNEQLENGGTSLSEKTVLLLVTPFLAAAWSLHP
For B2, which “other: PIPLC resistance of surface CD59” value [1] is on record?
Its value is “increases”.

B3: CD59: KIF (protein)
parent chain: MGIQGGSVLFGLLLVLAVFCHSGHSLQCYNCPNPTADCKTAVNCSSDFDACLITKAGLQVYNKCWKFEHCNFNDVTTRLRENELTYYCCKKDLCNFNEQLENGGTSLSEKTVLLLVTPFLAAAWSLHP
Which “other: PIPLC resistance of surface CD59” value [1] does the source give for B3 here?
Its value is “no change”.

B4: CD59: sgALG6 in MOGS-KO (protein)
parent chain: MGIQGGSVLFGLLLVLAVFCHSGHSLQCYNCPNPTADCKTAVNCSSDFDACLITKAGLQVYNKCWKFEHCNFNDVTTRLRENELTYYCCKKDLCNFNEQLENGGTSLSEKTVLLLVTPFLAAAWSLHP
For B4, which “other: PIPLC resistance of surface CD59” value ([2]; control: MOGS-KO cells) is on record?
The value was “decreases”.

B5: CD59: sgALG8 in MOGS-KO (protein)
parent chain: MGIQGGSVLFGLLLVLAVFCHSGHSLQCYNCPNPTADCKTAVNCSSDFDACLITKAGLQVYNKCWKFEHCNFNDVTTRLRENELTYYCCKKDLCNFNEQLENGGTSLSEKTVLLLVTPFLAAAWSLHP
With B5 as the protein, how does the “other: PIPLC resistance of surface CD59” value ([2]; control: MOGS-KO cells) read?
Its value is “decreases”.

B6: CD59: GANAB-KO (protein)
parent chain: MGIQGGSVLFGLLLVLAVFCHSGHSLQCYNCPNPTADCKTAVNCSSDFDACLITKAGLQVYNKCWKFEHCNFNDVTTRLRENELTYYCCKKDLCNFNEQLENGGTSLSEKTVLLLVTPFLAAAWSLHP
Which “other: PIPLC resistance of surface CD59” value ([2]; control: WT HEK293 cells) does the source give for B6 here?
Its value is “increases”.

Source: PMC5800811
